± gives the standard deviation of the averaged measurements.
system: ATP; assay: switch fluorescence ratio, 500 uM ATP over buffer (Cy3 cluster intensity, sum of 5 cycles each) (fold (ratio)); higher = stronger signal-on switching upon ATP binding; sequences stand for … in TCGTCGGCAGCGTCAGATGTGTATAAGAGACAGTTTTTTTTTTTTTTTTTTTTTTTTT…TC; conditions: aptamer strand: ATP DNA aptamer (quencher-CACCTGGGGGAGTATTGCGGAGGAAGG + anchor), 100 nM annealed; ATP concentration: 500 uM
In short: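 Five buffer/ATP imaging cycles were run on Cy3-labelled switching-strand clusters on a modified Illumina MiSeq flow-cell, with NaOH stripping and re-annealing between cycles. In each cycle, clusters annealed to 100 nM quencher-labelled ATP aptamer were imaged in selection buffer, then after 15 min with 500 uM ATP at 22 °C. Per cluster, the fluorescence ratio is summed target-cycle over summed buffer-cycle Cy3 intensity, averaged per switch-domain sequence. Only clusters within 100-1000 RFU were kept.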
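Also: ATP exposure 15 min at 22 °C before imaging.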

Sequence | switch fluorescence ratio
GCCAGGGAGG | 1.03 ± 0.026
TTTTAGGGTG | 1.07 ± 0.072
CAGTGATCTT | 0.97521 ± 0.00076
TGAGGGGAAT | 1 ± 0.012
AAGTATCCGT | 0.986 ± 0.048
TAGTTTTTTA | 1.02 ± 0.015
TTTCTGTTTT | 0.9913 ± 0.0088
CGCACCGGGT | 1.05 ± 0.015
GATTAGACAC | 1.013 ± 0.01
TTCAGGTGCC | 1.46 ± 0.04
AAAGAAGCTT | 1.02 ± 0.041
AGGGGGGGAC | 1 ± 0.021
CCGGGGATTC | 1.36 ± 0.2
TTTGCGGAGG | 1.27 ± 0.48
TATAATACGG | 1.02 ± 0.02
GCACGGGGGG | 1.03 ± 0.0077
CAGTTGGGGG | 1 ± 0.031
GAGTAGAAGA | 1.01 ± 0.035
AAGGGGGGTT | 1.01 ± 0.036
TTTGTCAGGT | 0.9692 ± 0.0021
TTTAACCCCC | 1.17 ± 0.24
CGTGTAGGGG | 1.03 ± 0.017
CTATGAGTTT | 0.993 ± 0.013
CGGGGGGCGG | 0.986 ± 0.032
CGGCAGCGAG | 1.078 ± 0.0015

Sequence | switch fluorescence ratio
TTTTAGTT | 0.993 ± 0.039
GCTATGATAA | 0.9933 ± 0.0072
CGCTTAGGCA | 1.02 ± 0.053
CTATTTAGTC | 0.9496 ± 0.0052
CATTTTATTT | 0.996 ± 0.032
AGGACTTTGG | 1.05 ± 0.056
GAGAGATTTT | 0.997 ± 0.034
AACGGGAGGG | 1.04 ± 0.011
TATTGATATT | 1.06 ± 0.14
TTCCCTTAAT | 1 ± 0.015
AGGGCCGTTG | 0.996 ± 0.035
CGGTTGTGCG | 0.969 ± 0.025
CAGACGTTTT | 0.9917 ± 0.0094
TAGCAAAAAG | 1.02 ± 0.031
GGAAAGGGAT | 0.991 ± 0.012
TCGTATAAGG | 0.982 ± 0.037
GGTTGTACGA | 0.986 ± 0.01
AGGGTTAGGG | 1.02 ± 0.03
CGTCTACATG | 1.03 ± 0.027
GCTCATAGCA | 1.02 ± 0.022
ATCAAAGGGA | 0.976 ± 0.048
CGCAGGGGGG | 1.09 ± 0.034
TAGAAAGTGT | 1.02 ± 0.019
ATAGTAGTGT | 0.998 ± 0.015
AATGACTTAA | 1.01 ± 0.048

Sequence | switch fluorescence ratio
ATGAGGTCTC | 0.98 ± 0.046
AAAAGTATGG | 1 ± 0.015
ACTAAGAGGG | 1.048 ± 0.0032
AGGCTTGTGT | 0.99 ± 0.077
TTTTTTAAAT | 0.987 ± 0.022
CCGTGTTCGA | 1.01 ± 0.051
TTTGGATGGG | 0.994 ± 0.012
TGCAGTAAGG | 0.97794 ± 0.00081
GGTCTGTTAT | 1.04 ± 0.078
AGTTCCAAAA | 1.07 ± 0.1
TTCATTCCGA | 1.29 ± 0.095
TTTGCTACGG | 1.05 ± 0.013
TTTATACGGT | 1.01 ± 0.005
ACCCTCTGGG | 1.01 ± 0.021
TTTAAAAAAT | 1.02 ± 0.035
AAGTGTATCA | 0.983 ± 0.02
CTTCCTTTTT | 3.13 ± 3
TGTGTCTAGT | 0.974 ± 0.0013
AAAAACGCTT | 1.01 ± 0.045
ATGAATCTAA | 1.01 ± 0.046
GCACTGGGGC | 1.01 ± 0.023
CGGGTCGGCC | 0.997 ± 0.025
AAGTTAACTT | 0.9883 ± 0.0087
CCGGTGTTTT | 1.06 ± 0.041
AAAATTTAAA | 1 ± 0.051

Sequence | switch fluorescence ratio
GGTGAGTGCA | 1.02 ± 0.07
TCGAAGCCTA | 1.17 ± 0.02
TGGCAGTAAA | 1.02 ± 0.039
CTCATTAAGG | 1.01 ± 0.016
CTTGTTTGGG | 1 ± 0.039
GAGGAATCGA | 1.04 ± 0.065
GGCGTAAGGG | 1.01 ± 0.019
GGCTTGCTAG | 1.001 ± 0.0046
CAACGGTTGG | 1.01 ± 0.045
ACCCGGGGTC | 1 ± 0.053
ATTAGTTCCG | 0.9814 ± 0.0025
TCATGGGAGA | 0.984 ± 0.04
TAATATCTTT | 0.995 ± 0.054
AAGTTGCTGG | 0.985 ± 0.019
CACTGTAACG | 1.194 ± 0.0063
GGGTGTTCCT | 0.989 ± 0.039
TTAATACTGT | 1.03 ± 0.016
TTCGGGGGGG | 1.01 ± 0.043
TCTGGGGCGT | 1.007 ± 0.0086
CTCTAAGT | 1.01 ± 0.017
AACTGGAGGG | 0.969 ± 0.042
TCGTATGATA | 0.968 ± 0.036
TAGGCGGAGC | 1.033 ± 0.0063
CAAAAAAAGA | 0.986 ± 0.067
TTGGGTCCGG | 1.03 ± 0.038

Source: the supplement of paper PMC10126150
